± gives the standard deviation of the averaged measurements.
The sequences below were run on ATP (assay: switch fluorescence ratio, 500 uM ATP over buffer (Cy3 cluster intensity, sum of 5 cycles each) (fold (ratio)); higher = stronger signal-on switching upon ATP binding; sequences stand for … in TCGTCGGCAGCGTCAGATGTGTATAAGAGACAGTTTTTTTTTTTTTTTTTTTTTTTTT…TC). Conditions: aptamer strand: ATP DNA aptamer (quencher-CACCTGGGGGAGTATTGCGGAGGAAGG + anchor), 100 nM annealed; ATP concentration: 500 uM.
Method in brief: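 Cy3-labelled switching-strand clusters on a modified Illumina MiSeq flow-cell were annealed to 100 nM quencher-labelled ATP aptamer, imaged in selection buffer, then imaged after 15 min with 500 uM ATP at 22 °C. Five buffer/ATP cycles ran, with NaOH stripping and re-annealing between them. The fluorescence ratio is summed target-cycle over summed buffer-cycle Cy3 intensity per cluster, averaged per switch-domain sequence. Clusters outside 100-1000 RFU were excluded.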
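Note: ATP exposure 15 min at 22 °C before imaging.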

Row | Sequence | switch fluorescence ratio
1 | AAATTGGGGG | 1.02 ± 0.075
2 | AAATTGGGTG | 1.02 ± 0.048
3 | AAATTGGTTG | 0.976 ± 0.014
4 | AAATTGGTTT | 0.995 ± 0.032
5 | AAATTGTAAA | 0.969 ± 0.051
6 | AAATTGTAAT | 1.02 ± 0.041
7 | AAATTGTATT | 1 ± 0.024
8 | AAATTGTTTT | 1.01 ± 0.019
9 | AAATTTAATG | 0.961 ± 0.016
10 | AAATTTACAT | 1.002 ± 0.0034
11 | AAATTTAGCT | 1.0313 ± 0.0006
12 | AAATTTATAA | 0.984 ± 0.044
13 | AAATTTATGT | 0.972 ± 0.027
14 | AAATTTCTTA | 1 ± 0.026
15 | AAATTTTGTT | 0.987 ± 0.021
16 | AACAAATGAT | 1.007 ± 0.0024
17 | AACAACCATT | 1.05 ± 0.051
18 | AACAAGTTAG | 1.01 ± 0.015
19 | AACAATATTG | 1.02 ± 0.028
20 | AACAATGCTA | 1.05 ± 0.026
21 | AACAATTCTG | 1.01 ± 0.012
22 | AACACAAGGT | 1.02 ± 0.017
23 | AACACGTATA | 1.227 ± 0.0097
24 | AACAGAAAGG | 0.982 ± 0.045
25 | AACAGAAATA | 1.01 ± 0.021

Row | Sequence | switch fluorescence ratio
26 | AACAGAGTTA | 1.02 ± 0.013
27 | AACAGGACTG | 1 ± 0.036
28 | AACAGGCGAT | 0.985 ± 0.034
29 | AACAGGTACT | 1.074 ± 0.0094
30 | AACAGTAGCA | 1.03 ± 0.019
31 | AACATAGGTG | 1.14 ± 0.056
32 | AACATGGGGC | 1.02 ± 0.041
33 | AACATTGTGG | 1.017 ± 0.0063
34 | AACATTTAGC | 1.01 ± 0.039
35 | AACATTTCTT | 0.976 ± 0.045
36 | AACATTTTGC | 0.9941 ± 0.0069
37 | AACATTTTTT | 0.99 ± 0.019
38 | AACCACGTTA | 1.09 ± 0.053
39 | AACCACTGGG | 1.17 ± 0.13
40 | AACCAGCACC | 1.0991 ± 0.00048
41 | AACCATACGT | 1.29 ± 0.032
42 | AACCCGCACC | 2.75 ± 0.12
43 | AACCCGCCTT | 1.07 ± 0.067
44 | AACCGAAGAC | 2.15 ± 0.075
45 | AACCGGGGGG | 0.994 ± 0.045
46 | AACCGGTATT | 0.9752 ± 0.0059
47 | AACCTATGCT | 1.012 ± 0.0018
48 | AACCTCATGC | 1.17 ± 0.086
49 | AACCTCGTCT | 1.07 ± 0.039
50 | AACCTCTATT | 1.03 ± 0.015

Row | Sequence | switch fluorescence ratio
51 | AACCTGCGGA | 1.02 ± 0.011
52 | AACCTGGTCG | 1.069 ± 0.0046
53 | AACCTTTCTG | 1.5 ± 0.021
54 | AACGAAAAGT | 0.996 ± 0.012
55 | AACGAATTAC | 1.79 ± 0.16
56 | AACGAGGCAG | 1.21 ± 0.038
57 | AACGATGTAA | 0.9951 ± 0.0059
58 | AACGATTGGC | 1.08 ± 0.018
59 | AACGCACGTT | 1.28 ± 0.02
60 | AACGCGTGGT | 1.01 ± 0.02
61 | AACGCTATGT | 1.05 ± 0.023
62 | AACGCTGAGG | 1.01 ± 0.009
63 | AACGCTTATT | 1.09 ± 0.064
64 | AACGGACAGG | 1.27 ± 0.049
65 | AACGGGAAGA | 1.02 ± 0.028
66 | AACGGGAGAC | 2.52 ± 0.24
67 | AACGGGCCCG | 1 ± 0.04
68 | AACGGGCGGG | 1.15 ± 0.014
69 | AACGGGCTGG | 0.996 ± 0.04
70 | AACGGGGGCT | 0.9778 ± 0.006
71 | AACGGGGGGG | 1.05 ± 0.037
72 | AACGGGGGTC | 1 ± 0.043
73 | AACGGGGGTG | 1.01 ± 0.045
74 | AACGGGGTGG | 0.976 ± 0.044
75 | AACGGGTCTG | 1.01 ± 0.039

Row | Sequence | switch fluorescence ratio
76 | AACGGGTTAC | 1.14 ± 0.019
77 | AACGGTAATT | 1.1 ± 0.034
78 | AACGGTACGG | 1.03 ± 0.045
79 | AACGGTATTC | 1.07 ± 0.043
80 | AACGGTTTCC | 1.02 ± 0.038
81 | AACGTACAGG | 1.65 ± 0.15
82 | AACGTACTGG | 1.52 ± 0.095
83 | AACGTAGGAC | 1.1 ± 0.014
84 | AACGTTCGCG | 1.03 ± 0.032
85 | AACGTTGGGG | 0.967 ± 0.017
86 | AACGTTTGCG | 0.986 ± 0.017
87 | AACGTTTGTT | 1.14 ± 0.23
88 | AACTAGGAGG | 0.983 ± 0.012
89 | AACTAGGATA | 1.01 ± 0.02
90 | AACTATTATG | 1.003 ± 0.01
91 | AACTATTGAA | 1.003 ± 0.0077
92 | AACTATTGCG | 0.988 ± 0.019
93 | AACTATTGTA | 1.01 ± 0.022
94 | AACTATTTGT | 0.978 ± 0.015
95 | AACTGAGTAG | 1.01 ± 0.015
96 | AACTGTTCTG | 1.01 ± 0.014
97 | AACTGTTGGT | 0.978 ± 0.025
98 | AACTTAAATT | 1.01 ± 0.021
99 | AACTTATGTC | 0.9738 ± 0.0069
100 | AACTTCAGGC | 1.05 ± 0.041

Reference: the supplement of paper PMC10126150
